Measured values from US20240123070A1 (published 2024).

T1: KRAS G13D (G13D-RT6) peptide on HLA-DQA1*05:01 / HLA-DQB1*03:01 (human)
T1 peptide: YKLVVVGAGDVGKSAL


Target: T1, KRAS G13D (G13D-RT6) peptide on …
Experiment: NFAT-luciferase; Jurkat-NFAT-Luc with the TCR and Lovo-DPA0301:DPB0501 cells loaded with G13D-RT6; against wild-type B8.2.4 TCR; full-length, on cells
Method: The TCR mutant (having a mutation present in CDR3 region) lentiviral vector was transduced into Jurkat-NFAT-Luc cell line, […] (G13D-RT6, SEQ ID NO: 20) were used as antigen-presenting cells (referred to as APCs), 2×10⁴ of the TCR-T and 2×10⁴ of the antigen-loaded APCs were co-cultured for 16-24 hours, added with ONE Glo Luciferase to detect the fluorescent signal expression, then TCR Mut RLU/WT RLU (ratio of RLU signal value of TCR mutant to RLU signal value of wild-type B8.2.4TCR) was calculated, and the results were shown in Table 9.

Row | Binder | TCR Mut RLU/WT RLU [ratio]
1 | B8.2.4 TCR mutant α97R-A (TCR, V domains shown) Valpha: AQKITQTQPGMFVQEKEAVTLDCTYDTSDPSYGLFWYKQPSSGEMIFLIYQGSYDQQNATEGRYSLNFQKARKSANLVISASQLGDSAMYFCAMREATGTASKLTFGTGTRLQVTL Vbeta: DVKVTQSSRYLVKRTGEKVFLECVQDMDHENMFWYRQDPGLGLRLIYFSYDVKMKEKGDIPEGYSVSREKKERFSLILESASTNQTSMYLCASSQTVPPQHFGDGTRLSIL | 0.13
2 | B8.2.4 TCR mutant α97R-K (TCR, V domains shown) Valpha: AQKITQTQPGMFVQEKEAVTLDCTYDTSDPSYGLFWYKQPSSGEMIFLIYQGSYDQQNATEGRYSLNFQKARKSANLVISASQLGDSAMYFCAMREKTGTASKLTFGTGTRLQVTL Vbeta: DVKVTQSSRYLVKRTGEKVFLECVQDMDHENMFWYRQDPGLGLRLIYFSYDVKMKEKGDIPEGYSVSREKKERFSLILESASTNQTSMYLCASSQTVPPQHFGDGTRLSIL | 0.24
3 | B8.2.4 TCR mutant α97R-T (TCR, V domains shown) Valpha: AQKITQTQPGMFVQEKEAVTLDCTYDTSDPSYGLFWYKQPSSGEMIFLIYQGSYDQQNATEGRYSLNFQKARKSANLVISASQLGDSAMYFCAMRETTGTASKLTFGTGTRLQVTL Vbeta: DVKVTQSSRYLVKRTGEKVFLECVQDMDHENMFWYRQDPGLGLRLIYFSYDVKMKEKGDIPEGYSVSREKKERFSLILESASTNQTSMYLCASSQTVPPQHFGDGTRLSIL | 0.23
4 | B8.2.4 TCR mutant α97R-I (TCR, V domains shown) Valpha: AQKITQTQPGMFVQEKEAVTLDCTYDTSDPSYGLFWYKQPSSGEMIFLIYQGSYDQQNATEGRYSLNFQKARKSANLVISASQLGDSAMYFCAMREITGTASKLTFGTGTRLQVTL Vbeta: DVKVTQSSRYLVKRTGEKVFLECVQDMDHENMFWYRQDPGLGLRLIYFSYDVKMKEKGDIPEGYSVSREKKERFSLILESASTNQTSMYLCASSQTVPPQHFGDGTRLSIL | 0.16
5 | B8.2.4 TCR mutant α97R-S (TCR, V domains shown) Valpha: AQKITQTQPGMFVQEKEAVTLDCTYDTSDPSYGLFWYKQPSSGEMIFLIYQGSYDQQNATEGRYSLNFQKARKSANLVISASQLGDSAMYFCAMRESTGTASKLTFGTGTRLQVTL Vbeta: DVKVTQSSRYLVKRTGEKVFLECVQDMDHENMFWYRQDPGLGLRLIYFSYDVKMKEKGDIPEGYSVSREKKERFSLILESASTNQTSMYLCASSQTVPPQHFGDGTRLSIL | 0.22
6 | B8.2.4 TCR mutant α97R-C (TCR, V domains shown) Valpha: AQKITQTQPGMFVQEKEAVTLDCTYDTSDPSYGLFWYKQPSSGEMIFLIYQGSYDQQNATEGRYSLNFQKARKSANLVISASQLGDSAMYFCAMRECTGTASKLTFGTGTRLQVTL Vbeta: DVKVTQSSRYLVKRTGEKVFLECVQDMDHENMFWYRQDPGLGLRLIYFSYDVKMKEKGDIPEGYSVSREKKERFSLILESASTNQTSMYLCASSQTVPPQHFGDGTRLSIL | 0.27
7 | B8.2.4 TCR mutant α97R-V (TCR, V domains shown) Valpha: AQKITQTQPGMFVQEKEAVTLDCTYDTSDPSYGLFWYKQPSSGEMIFLIYQGSYDQQNATEGRYSLNFQKARKSANLVISASQLGDSAMYFCAMREVTGTASKLTFGTGTRLQVTL Vbeta: DVKVTQSSRYLVKRTGEKVFLECVQDMDHENMFWYRQDPGLGLRLIYFSYDVKMKEKGDIPEGYSVSREKKERFSLILESASTNQTSMYLCASSQTVPPQHFGDGTRLSIL | 0.16
8 | B8.2.4 TCR mutant α97R-D (TCR, V domains shown) Valpha: AQKITQTQPGMFVQEKEAVTLDCTYDTSDPSYGLFWYKQPSSGEMIFLIYQGSYDQQNATEGRYSLNFQKARKSANLVISASQLGDSAMYFCAMREDTGTASKLTFGTGTRLQVTL Vbeta: DVKVTQSSRYLVKRTGEKVFLECVQDMDHENMFWYRQDPGLGLRLIYFSYDVKMKEKGDIPEGYSVSREKKERFSLILESASTNQTSMYLCASSQTVPPQHFGDGTRLSIL | 0.17
9 | B8.2.4 TCR mutant α97R-N (TCR, V domains shown) Valpha: AQKITQTQPGMFVQEKEAVTLDCTYDTSDPSYGLFWYKQPSSGEMIFLIYQGSYDQQNATEGRYSLNFQKARKSANLVISASQLGDSAMYFCAMRENTGTASKLTFGTGTRLQVTL Vbeta: DVKVTQSSRYLVKRTGEKVFLECVQDMDHENMFWYRQDPGLGLRLIYFSYDVKMKEKGDIPEGYSVSREKKERFSLILESASTNQTSMYLCASSQTVPPQHFGDGTRLSIL | 0.16
10 | B8.2.4 TCR mutant α97R-H (TCR, V domains shown) Valpha: AQKITQTQPGMFVQEKEAVTLDCTYDTSDPSYGLFWYKQPSSGEMIFLIYQGSYDQQNATEGRYSLNFQKARKSANLVISASQLGDSAMYFCAMREHTGTASKLTFGTGTRLQVTL Vbeta: DVKVTQSSRYLVKRTGEKVFLECVQDMDHENMFWYRQDPGLGLRLIYFSYDVKMKEKGDIPEGYSVSREKKERFSLILESASTNQTSMYLCASSQTVPPQHFGDGTRLSIL | 0.13

Now from value to binder:

Row | TCR Mut RLU/WT RLU [ratio] | Binder
11 | 0.18 | B8.2.4 TCR mutant α97R-W (TCR, V domains shown) Valpha: AQKITQTQPGMFVQEKEAVTLDCTYDTSDPSYGLFWYKQPSSGEMIFLIYQGSYDQQNATEGRYSLNFQKARKSANLVISASQLGDSAMYFCAMREWTGTASKLTFGTGTRLQVTL Vbeta: DVKVTQSSRYLVKRTGEKVFLECVQDMDHENMFWYRQDPGLGLRLIYFSYDVKMKEKGDIPEGYSVSREKKERFSLILESASTNQTSMYLCASSQTVPPQHFGDGTRLSIL
12 | 0.16 | B8.2.4 TCR mutant α97R-Y (TCR, V domains shown) Valpha: AQKITQTQPGMFVQEKEAVTLDCTYDTSDPSYGLFWYKQPSSGEMIFLIYQGSYDQQNATEGRYSLNFQKARKSANLVISASQLGDSAMYFCAMREYTGTASKLTFGTGTRLQVTL Vbeta: DVKVTQSSRYLVKRTGEKVFLECVQDMDHENMFWYRQDPGLGLRLIYFSYDVKMKEKGDIPEGYSVSREKKERFSLILESASTNQTSMYLCASSQTVPPQHFGDGTRLSIL
13 | 0.16 | B8.2.4 TCR mutant α97R-Q (TCR, V domains shown) Valpha: AQKITQTQPGMFVQEKEAVTLDCTYDTSDPSYGLFWYKQPSSGEMIFLIYQGSYDQQNATEGRYSLNFQKARKSANLVISASQLGDSAMYFCAMREQTGTASKLTFGTGTRLQVTL Vbeta: DVKVTQSSRYLVKRTGEKVFLECVQDMDHENMFWYRQDPGLGLRLIYFSYDVKMKEKGDIPEGYSVSREKKERFSLILESASTNQTSMYLCASSQTVPPQHFGDGTRLSIL
14 | 0.16 | B8.2.4 TCR mutant α97R-E (TCR, V domains shown) Valpha: AQKITQTQPGMFVQEKEAVTLDCTYDTSDPSYGLFWYKQPSSGEMIFLIYQGSYDQQNATEGRYSLNFQKARKSANLVISASQLGDSAMYFCAMREETGTASKLTFGTGTRLQVTL Vbeta: DVKVTQSSRYLVKRTGEKVFLECVQDMDHENMFWYRQDPGLGLRLIYFSYDVKMKEKGDIPEGYSVSREKKERFSLILESASTNQTSMYLCASSQTVPPQHFGDGTRLSIL
15 | 0.17 | B8.2.4 TCR mutant α97R-M (TCR, V domains shown) Valpha: AQKITQTQPGMFVQEKEAVTLDCTYDTSDPSYGLFWYKQPSSGEMIFLIYQGSYDQQNATEGRYSLNFQKARKSANLVISASQLGDSAMYFCAMREMTGTASKLTFGTGTRLQVTL Vbeta: DVKVTQSSRYLVKRTGEKVFLECVQDMDHENMFWYRQDPGLGLRLIYFSYDVKMKEKGDIPEGYSVSREKKERFSLILESASTNQTSMYLCASSQTVPPQHFGDGTRLSIL
